According to patent publication US20260015399A1 (Boehringer Ingelheim, published 2026):
*1 amine or outer side, *2 acyl side, *3 side chain or, on linkers, in order; H or OH if unused. Side-chain parts run from the residue outwards. The star is where a group is joined. C18 diacid = O=C(O)CCCCCCCCCCCCCCCCC(=O)*; γGlu = O=C(O)[C@H](CCC(=O)[*:2])N[*:1]; Isovaleryl = CC(C)CC(=O)*; Ahx = NCCCCCC(=O)O

T1: human NPY2 receptor (human, UniProt P49146 1-381)
T1 construct: whole, on cells; also called hNPY2-R; hNPY2R
T1 sequence (looked up): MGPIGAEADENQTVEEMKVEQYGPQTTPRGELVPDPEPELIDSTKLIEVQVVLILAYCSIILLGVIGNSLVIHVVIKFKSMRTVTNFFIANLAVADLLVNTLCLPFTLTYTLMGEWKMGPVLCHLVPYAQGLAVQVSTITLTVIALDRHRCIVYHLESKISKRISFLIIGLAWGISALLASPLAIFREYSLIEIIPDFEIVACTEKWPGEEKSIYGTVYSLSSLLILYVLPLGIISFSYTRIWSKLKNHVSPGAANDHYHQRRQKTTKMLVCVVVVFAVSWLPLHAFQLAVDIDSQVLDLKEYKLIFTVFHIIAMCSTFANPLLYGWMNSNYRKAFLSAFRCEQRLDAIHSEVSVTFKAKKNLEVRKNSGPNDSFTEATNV

T2: human NPY5 receptor (human, UniProt Q15761 1-445)
T2 sequence (looked up): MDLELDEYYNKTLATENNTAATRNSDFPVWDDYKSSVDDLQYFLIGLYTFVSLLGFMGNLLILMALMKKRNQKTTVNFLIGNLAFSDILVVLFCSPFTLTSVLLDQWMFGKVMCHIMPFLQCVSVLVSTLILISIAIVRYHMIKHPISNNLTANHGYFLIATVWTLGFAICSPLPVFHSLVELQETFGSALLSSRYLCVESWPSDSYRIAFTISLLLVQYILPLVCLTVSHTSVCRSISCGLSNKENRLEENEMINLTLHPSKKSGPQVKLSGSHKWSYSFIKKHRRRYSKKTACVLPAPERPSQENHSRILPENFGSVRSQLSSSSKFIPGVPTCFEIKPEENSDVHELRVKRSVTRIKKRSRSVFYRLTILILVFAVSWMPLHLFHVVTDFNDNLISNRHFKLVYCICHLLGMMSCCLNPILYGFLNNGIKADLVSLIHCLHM


Key:
human NPY2 receptor [1] = target: T1, human NPY2 receptor; assay: RLB: displacement of 125I-PYY(1-36) from hNPY2R membranes
human NPY5 receptor = target: T2, human NPY5 receptor; assay: cell-based or functional assay
human NPY2 receptor [2] = target: T1, human NPY2 receptor; assay: cell-based or functional assay

Binder | Ki (human NPY2 receptor [1]) [nM] | EC50, HTRF cAMP Gi assay (human NPY5 receptor) [nM] | EC50, HTRF cAMP Gi assay (human NPY2 receptor [2]) [nM]
Isovaleryl-APEK([Ahx-γGlu-C18 diacid])PEEDASPEELQQYYVSLRHYYHWLTRQRY-NH2 (SMILES CC(C)CC(=O)N[C@@H](C)C(=O)N1CCC[C@H]1C(=O)N[C@@H](CCC(=O)O)C(=O)N[C@@H](CCCCNC(=O)CCCCCNC(=O)CC[C@H](NC(=O)CCCCCCCCCCCCCCCCC(=O)O)C(=O)O)C(=O)N1CCC[C@H]1C(=O)N[C@@H](CCC(=O)O)C(=O)N[C@@H](CCC(=O)O)C(=O)N[C@@H](CC(=O)O)C(=O)N[C@@H](C)C(=O)N[C@@H](CO)C(=O)N1CCC[C@H]1C(=O)N[C@@H](CCC(=O)O)C(=O)N[C@@H](CCC(=O)O)C(=O)N[C@@H](CC(C)C)C(=O)N[C@@H](CCC(N)=O)C(=O)N[C@@H](CCC(N)=O)C(=O)N[C@@H](Cc1ccc(O)cc1)C(=O)N[C@@H](Cc1ccc(O)cc1)C(=O)N[C@H](C(=O)N[C@@H](CO)C(=O)N[C@@H](CC(C)C)C(=O)N[C@@H](CCCNC(=N)N)C(=O)N[C@@H](Cc1c[nH]cn1)C(=O)N[C@@H](Cc1ccc(O)cc1)C(=O)N[C@@H](Cc1ccc(O)cc1)C(=O)N[C@@H](Cc1c[nH]cn1)C(=O)N[C@@H](Cc1c[nH]c2ccccc12)C(=O)N[C@@H](CC(C)C)C(=O)N[C@H](C(=O)N[C@@H](CCCNC(=N)N)C(=O)N[C@@H](CCC(N)=O)C(=O)N[C@@H](CCCNC(=N)N)C(=O)N[C@@H](Cc1ccc(O)cc1)C(N)=O)[C@@H](C)O)C(C)C) [Compound 12] | 4.16 | > 5000 | 0.25
Isovaleryl-APEK([Ahx-γGlu-C18 diacid])PPEDASPEELQRYYVSLRHYYNWLTRQRY-NH2 (SMILES CC(C)CC(=O)N[C@@H](C)C(=O)N1CCC[C@H]1C(=O)N[C@@H](CCC(=O)O)C(=O)N[C@@H](CCCCNC(=O)CCCCCNC(=O)CC[C@H](NC(=O)CCCCCCCCCCCCCCCCC(=O)O)C(=O)O)C(=O)N1CCC[C@H]1C(=O)N1CCC[C@H]1C(=O)N[C@@H](CCC(=O)O)C(=O)N[C@@H](CC(=O)O)C(=O)N[C@@H](C)C(=O)N[C@@H](CO)C(=O)N1CCC[C@H]1C(=O)N[C@@H](CCC(=O)O)C(=O)N[C@@H](CCC(=O)O)C(=O)N[C@@H](CC(C)C)C(=O)N[C@@H](CCC(N)=O)C(=O)N[C@@H](CCCNC(=N)N)C(=O)N[C@@H](Cc1ccc(O)cc1)C(=O)N[C@@H](Cc1ccc(O)cc1)C(=O)N[C@H](C(=O)N[C@@H](CO)C(=O)N[C@@H](CC(C)C)C(=O)N[C@@H](CCCNC(=N)N)C(=O)N[C@@H](Cc1c[nH]cn1)C(=O)N[C@@H](Cc1ccc(O)cc1)C(=O)N[C@@H](Cc1ccc(O)cc1)C(=O)N[C@@H](CC(N)=O)C(=O)N[C@@H](Cc1c[nH]c2ccccc12)C(=O)N[C@@H](CC(C)C)C(=O)N[C@H](C(=O)N[C@@H](CCCNC(=N)N)C(=O)N[C@@H](CCC(N)=O)C(=O)N[C@@H](CCCNC(=N)N)C(=O)N[C@@H](Cc1ccc(O)cc1)C(N)=O)[C@@H](C)O)C(C)C) [Compound 14] | 1.28 | > 5000 | 0.086
Isovaleryl-APEK([Ahx-γGlu-C18 diacid])PEEDASPEEIQQYYVSLRHYYNWLTRQRY-NH2 (SMILES CC[C@H](C)[C@H](NC(=O)[C@H](CCC(=O)O)NC(=O)[C@H](CCC(=O)O)NC(=O)[C@@H]1CCCN1C(=O)[C@H](CO)NC(=O)[C@H](C)NC(=O)[C@H](CC(=O)O)NC(=O)[C@H](CCC(=O)O)NC(=O)[C@H](CCC(=O)O)NC(=O)[C@@H]1CCCN1C(=O)[C@H](CCCCNC(=O)CCCCCNC(=O)CC[C@H](NC(=O)CCCCCCCCCCCCCCCCC(=O)O)C(=O)O)NC(=O)[C@H](CCC(=O)O)NC(=O)[C@@H]1CCCN1C(=O)[C@H](C)NC(=O)CC(C)C)C(=O)N[C@@H](CCC(N)=O)C(=O)N[C@@H](CCC(N)=O)C(=O)N[C@@H](Cc1ccc(O)cc1)C(=O)N[C@@H](Cc1ccc(O)cc1)C(=O)N[C@H](C(=O)N[C@@H](CO)C(=O)N[C@@H](CC(C)C)C(=O)N[C@@H](CCCNC(=N)N)C(=O)N[C@@H](Cc1c[nH]cn1)C(=O)N[C@@H](Cc1ccc(O)cc1)C(=O)N[C@@H](Cc1ccc(O)cc1)C(=O)N[C@@H](CC(N)=O)C(=O)N[C@@H](Cc1c[nH]c2ccccc12)C(=O)N[C@@H](CC(C)C)C(=O)N[C@H](C(=O)N[C@@H](CCCNC(=N)N)C(=O)N[C@@H](CCC(N)=O)C(=O)N[C@@H](CCCNC(=N)N)C(=O)N[C@@H](Cc1ccc(O)cc1)C(N)=O)[C@@H](C)O)C(C)C) [Compound 15] | 3.98 | > 5000 | 0.14
Isovaleryl-APEK([Ahx-γGlu-C18 diacid])PEADASPEEIQRYYVSLRHYYNWLTRQRY-NH2 [Compound 140] | 1.41 | > 5000 | 
Isovaleryl-APAK([Ahx-γGlu-C18 diacid])PEEEASPEELQRYYVSLRHYYNWLTRQRY-NH2 (SMILES CC(C)CC(=O)N[C@@H](C)C(=O)N1CCC[C@H]1C(=O)N[C@@H](C)C(=O)N[C@@H](CCCCNC(=O)CCCCCNC(=O)CC[C@H](NC(=O)CCCCCCCCCCCCCCCCC(=O)O)C(=O)O)C(=O)N1CCC[C@H]1C(=O)N[C@@H](CCC(=O)O)C(=O)N[C@@H](CCC(=O)O)C(=O)N[C@@H](CCC(=O)O)C(=O)N[C@@H](C)C(=O)N[C@@H](CO)C(=O)N1CCC[C@H]1C(=O)N[C@@H](CCC(=O)O)C(=O)N[C@@H](CCC(=O)O)C(=O)N[C@@H](CC(C)C)C(=O)N[C@@H](CCC(N)=O)C(=O)N[C@@H](CCCNC(=N)N)C(=O)N[C@@H](Cc1ccc(O)cc1)C(=O)N[C@@H](Cc1ccc(O)cc1)C(=O)N[C@H](C(=O)N[C@@H](CO)C(=O)N[C@@H](CC(C)C)C(=O)N[C@@H](CCCNC(=N)N)C(=O)N[C@@H](Cc1c[nH]cn1)C(=O)N[C@@H](Cc1ccc(O)cc1)C(=O)N[C@@H](Cc1ccc(O)cc1)C(=O)N[C@@H](CC(N)=O)C(=O)N[C@@H](Cc1c[nH]c2ccccc12)C(=O)N[C@@H](CC(C)C)C(=O)N[C@H](C(=O)N[C@@H](CCCNC(=N)N)C(=O)N[C@@H](CCC(N)=O)C(=O)N[C@@H](CCCNC(=N)N)C(=O)N[C@@H](Cc1ccc(O)cc1)C(N)=O)[C@@H](C)O)C(C)C) [Compound 199] | 2.87 |  | 
Isovaleryl-APEK([Ahx-γGlu-C18 diacid])PGADASPEKLQRYYVSLRHYYHKLTRQRY-NH2 (SMILES CC(C)CC(=O)N[C@@H](C)C(=O)N1CCC[C@H]1C(=O)N[C@@H](CCC(=O)O)C(=O)N[C@@H](CCCCNC(=O)CCCCCNC(=O)CC[C@H](NC(=O)CCCCCCCCCCCCCCCCC(=O)O)C(=O)O)C(=O)N1CCC[C@H]1C(=O)NCC(=O)N[C@@H](C)C(=O)N[C@@H](CC(=O)O)C(=O)N[C@@H](C)C(=O)N[C@@H](CO)C(=O)N1CCC[C@H]1C(=O)N[C@@H](CCC(=O)O)C(=O)N[C@@H](CCCCN)C(=O)N[C@@H](CC(C)C)C(=O)N[C@@H](CCC(N)=O)C(=O)N[C@@H](CCCNC(=N)N)C(=O)N[C@@H](Cc1ccc(O)cc1)C(=O)N[C@@H](Cc1ccc(O)cc1)C(=O)N[C@H](C(=O)N[C@@H](CO)C(=O)N[C@@H](CC(C)C)C(=O)N[C@@H](CCCNC(=N)N)C(=O)N[C@@H](Cc1c[nH]cn1)C(=O)N[C@@H](Cc1ccc(O)cc1)C(=O)N[C@@H](Cc1ccc(O)cc1)C(=O)N[C@@H](Cc1c[nH]cn1)C(=O)N[C@@H](CCCCN)C(=O)N[C@@H](CC(C)C)C(=O)N[C@H](C(=O)N[C@@H](CCCNC(=N)N)C(=O)N[C@@H](CCC(N)=O)C(=O)N[C@@H](CCCNC(=N)N)C(=O)N[C@@H](Cc1ccc(O)cc1)C(N)=O)[C@@H](C)O)C(C)C) [Compound 174] | 0.21 |  | 
